Results on 2 molecules are retold here after patent US20240002533A1 (Merck Sharp & Dohme, published 2024).

The target of this test is T1, human arginase 1, trimeric (full-length untagged hArg1 expressed in E. coli) (human, UniProt P05089 1-322).
T1 sequence: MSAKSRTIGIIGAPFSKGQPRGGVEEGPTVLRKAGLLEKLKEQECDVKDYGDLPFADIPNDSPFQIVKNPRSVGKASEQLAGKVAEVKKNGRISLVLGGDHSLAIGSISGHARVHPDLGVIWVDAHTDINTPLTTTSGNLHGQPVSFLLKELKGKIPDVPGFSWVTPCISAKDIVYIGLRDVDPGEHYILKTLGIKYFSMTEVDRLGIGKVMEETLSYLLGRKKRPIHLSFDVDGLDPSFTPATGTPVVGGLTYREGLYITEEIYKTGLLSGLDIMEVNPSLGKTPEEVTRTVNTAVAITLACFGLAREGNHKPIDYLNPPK
The test is described as follows: cell-based or functional assay.

B1: Antibody mAb1 (chimeric: human VH1 and VL on a mouse IgG2a/kappa constant domain backbone) (antibody)
heavy: QVQLVQSGAEVKKPGASVKVSCKASGYTFTNYGISWVRQAPGQGLEWMGWISAYNGNTNYAQKLQGRVTMTTDTSTSTAYMELRSLRSDDTAVYYCAREGAYGYRSPYHNWFDPWGQGTLVTVSSAKTTAPSVYPLAPVCGDTTGSSVTLGCLVKGYFPEPVTLTWNSGSLSSGVHTFPAVLQSDLYTLSSSVTVTSSTWPSQSITCNVAHPASSTKVDKKIEPRGPTIKPCPPCKCPAPNLLGGPSVFIFPPKIKDVLMISLSPIVTCVVVDVSEDDPDVQISWFVNNVEVHTAQTQTHREDYNSTLRVVSALPIQHQDWMSGKEFKCKVNNKDLPAPIERTISKPKGSVRAPQVYVLPPPEEEMTKKQVTLTCMVTDFMPEDIYVEWTNNGKTELNYKNTEPVLDSDGSYFMYSKLRVEKKNWVERNSYSCSVVHEGLHNHHTTKSFSRTPGK
light: EIVMTQSPATLSLSPGERATLSCRASQSVSSYLAWYQQKPGQAPRLLIYDASNRATGIPARFSGSGSGTDFTLTISSLEPEDFAVYYCQQHSLLPRTFGGGTKVEIKRTVAAPTVSIFPPSSEQLTSGGASVVCFLNNFYPKDINVKWKIDGSERQNGVLNSWTDQDSKDSTYSMSSTLTLTKDEYERHNSYTCEATHKTSTSPIVKSFNRNEC
As for B1, the “IC50 (% inhibition of hArg1 activity, arginine to ornithine by LC-MS)” value worked out at 3.3 nM.

B2: Antibody mAb2 (chimeric: human VH1 and VL on a mouse IgG1 D265A/kappa constant domain backbone) (antibody)
heavy: QVQLVQSGAEVKKPGASVKVSCKASGYTFTNYGISWVRQAPGQGLEWMGWISAYNGNTNYAQKLQGRVTMTTDTSTSTAYMELRSLRSDDTAVYYCAREGAYGYRSPYHNWFDPWGQGTLVTVSSAKTTPPSVYPLAPGSAAQTNSMVTLGCLVKGYFPEPVTVTWNSGSLSSGVHTFPAVLQSDLYTLSSSVTVPSSTWPSETVTCNVAHPASSTKVDKKIVPRDCGCKPCICTVPEVSSVFIFPPKPKDVLTITLTPKVTCVVVAISKDDPEVQFSWFVDDVEVHTAQTQPREEQFNSTFRSVSELPIMHQDWLNGKEFKCRVNSAAFPAPIEKTISKTKGRPKAPQVYTIPPPKEQMAKDKVSLTCMITDFFPEDITVEWQWNGQPAENYKNTQPIMDTDGSYFVYSKLNVQKSNWEAGNTFTCSVLHEGLHNHHTEKSLSHSPGK
light: EIVMTQSPATLSLSPGERATLSCRASQSVSSYLAWYQQKPGQAPRLLIYDASNRATGIPARFSGSGSGTDFTLTISSLEPEDFAVYYCQQHSLLPRTFGGGTKVEIKRTVAAPTVSIFPPSSEQLTSGGASVVCFLNNFYPKDINVKWKIDGSERQNGVLNSWTDQDSKDSTYSMSSTLTLTKDEYERHNSYTCEATHKTSTSPIVKSFNRNEC
For B2, the “IC50 (% inhibition of hArg1 activity, arginine to ornithine by LC-MS)” value is 5.3 nM.
